What was measured:
BJ cells [1] = test: Reprogramming of human fibroblasts scored by TRA-1-60+ colonies/clusters; type: cell-based; settings: for reprogramming activity (TRA-1-60+ colonies): used with 3F in BJ cells, compared to OSK-GFP control
Procedure: Briefly (FIG. 1A), 2×10^4 of BJ cells were seeded in each well of a 24-well plates. The second day, fibroblasts were transduced with OCT4 (10 MOI), SOX2 (5 MOI), KLF4 (5 MOI) along with 250 μl of individual kinase viral supernatant freshly packaged in one well of a 6-well plate. Twenty-two cDNAs were evaluated in one 24-well plate. One well is OSK control, and one well of cells is transduced with OSK plus 250 μl of GFP viral supernatant as a second control. Virus was removed next day with fresh fibroblast medium. Forty-eight hours after transduction, fibroblasts were transferred from one well into a 60-mm dish for continued reprogramming. The next day of re-seeding, fibroblast medium was replaced with E7 medium (E8 minus TGF beta) plus 100 μM of sodium butyrate. From day 18 of reprogramming on, E8 media was used. On day 25 of reprogramming, reprogramming dishes were stained for ALP or TRA-1-60 markers.
• Concentration of virus: The reprogramming viruses (OCT4, SOX2, KLF4, MYC and BET members) were concentrated before use except for library viruses. The lentiviral supernatant was centrifuged at 3,000×g for 10 mins at 4° C. to remove the cell debris. Thirty ml of the viral supernatant was then transferred into each 50-ml tube. 7 ml of 50% PEG-6000 stock solution (final concentration of 8.5%) and 4.1 ml of 4 M NaCl stock solution was added to each tube (final concentration of 0.4 M). The virus mixture was stored at 4° C. for 3-5 h.
• Cell culture and reprogramming: Human fibroblast cells (BJ ATCC CRL-2522®) were cultured in fibroblast medium: DMEM, 10% heat-inactivated FBS, 0.1 mM 2-mercaptoethanol, 100 U/ml penicillin, 100 μg/ml streptomycin, 0.1 mM MEM NEAA and 4 ng/ml human bFGF. For reprogramming, seed BJ cells into 24-well plate at 2×10^4 cells/well. Twenty-four hours after plating, pre-mix the OSK (OCT4, 10 MOI; SOX2, 5 MOI and KLF4, 5 MOI) viruses (shown in FIGS. 6B-6D, SEQ ID NO: 58-60, respectively), and add the OSK virus along with 250 μl supernatant of individual kinase virus into respective wells. Incubate overnight. Next morning, remove viruses by replacing virus-containing medium with fresh fibroblast medium. Twenty-four hours after transduction, the cells were re-seeded from one well into one matrigel-coated 60-mm dish. Next day, replace fibroblast medium with reprogramming media (E7 plus sodium butyrate at 100 μM). On 18 day, start to use E8 media. On day 25 of reprogramming, stain the reprogramming cells for alkaline phosphatase or TRA-1-60.

[2] = biological target: T1, tetra-acetylated H4 (H4K5/8/12/16Ac) (Homo sapiens, UniProt P62805); test: Histone peptide pull-down assay; type: binding; settings: lysates of human fibroblasts overexpressing BRD3R or BRD3; western with BRD3 antibody
T1 construct: Histone tails used for peptide pull-down experiments; Peg-biotin (chemical label); incubated with lysate of human BJ fibroblasts transduced with BRD3R or BRD3 virus
Procedure: • Histone peptide pull-down assay: H3 or H4 histone tails with 8 different acetylation modifications were evaluated for binding with BRD3R and BRD3. One unmodified tail for each histone was used for negative control.
Human BJ fibroblasts were transduced with BRD3 or BRD3R viruses. Three days post-transduction, cells were lysed by non-denaturing lysis buffer (20 mM HEPES pH 7.9, 150 mM NaCl, 1 mM MgCl2, 0.5% NP40, 10 mM NaF, 0.2 mM NaVO4, 10 mM β-glycerol phosphate, 5% glycerol, 1 mM DTT, 1 mM PMSF and protease inhibitors). Twenty μg of the cell lysates were incubated with 1 μg biotinylated peptide in 300 μl binding buffer (50 mM Tris pH 7.5, 150 mM NaCl, 0.1% NP-40, 1 mM PMSF and protease inhibitors) at 4° C. for overnight. The next day, 30 μl of Dynabeads M-280 Streptavidin was added into each sample (Invitrogen, 11205D). The mixture of proteins, antibodies and beads were further incubated with gentle rotation at 4° C. for 1 h. The beads were then washed with binding buffer three times. The bound proteins were resuspended in 60 μl of 2× SDS sample buffer. The pull-down proteins were analyzed by western using antibody of BRD3 (Proteintech, 11859-1-AP). Two micrograms of cell lysates were loaded as input control. For semi-quantification, band density was normalized to the corresponding inputs.

BJ cells [3] = test: Sensitivity test of the optimized small-vessel reprogramming protocol (ALP staining); type: cell-based, human; settings: n=3
From the text: • Optimization of screening protocol: Several strategies to make the screening of cDNA library more efficient and sensitive were used. First, the lentiviral reprogramming vector was modified so that it is more efficient and consistent in reprogramming human cells. This was achieved by using EF1a promoter and co-expression of GFP, which makes titration of viral vectors easier and faster. Second, the efficient Gateway cloning was used to transfer the human kinase library onto the modified lentiviral destination vector. 24 randomly selected of the 89 cloned cDNAs were sequenced, and verified precise cloning for all of the 24 genes. Third, a protocol to simultaneously package 24×n individual transgene viruses in individual wells of 6-well plates was established. The kinase virus was not concentrated and the supernatant directly used in screening protocol. Almost 100% of transduction of BJ cells in one well of a 24-well plate with 250 μl of supernatant using GFP reporter construct on the same destination vector (FIGS. 6J and 6K) was achieved. […] To test the sensitivity of the new screening protocols, the reprogramming activities of two established reprogramming factors: NANOG and LIN28, were evaluated. […]
Briefly (FIG. 1A), 2×10^4 of BJ cells were seeded in each well of a 24-well plates. […] Twenty-two cDNAs were evaluated in one 24-well plate. […]

BRD3R mRNA = test: Knockdown of BRD3R mRNA by shRNA (RT-qPCR); type: cell-based, human
Procedure: • shRNA cloning: BRD3R shRNAs at XbaI and HpaI sites on the shRNA vector PLVH-U6-EF1a-AcGFP were cloned. Correct cloning was verified by sequencing. An shRNA targeting the firefly luciferase was used as a control.
• RT-qPCR: Cells were harvested with Trizol reagent and stored at −80° C. until use. Total RNA was extracted using the Direct-zol™ Miniprep kit (R2052). cDNA was prepared using the M-MLV reverse transcriptase (cat #28025-013) per manufacturer's instruction. Quantitative PCR was performed on ViiA 7 Real-time PCR system (Applied Biosystem) using SYBR-Green Master PCR mix (Clontech, Cat #639676) in triplicates. All quantifications were normalized to an endogenous GAPDH control.

| Molecule | reprogramming activity (TRA-1-60+ colonies) (BJ cells [1]) | increase in reprogramming efficiency (BJ cells [3]) | further results |
| --- | --- | --- | --- |
| BRD2: BET subfamily bromodomain protein | none did |  |  |
| BRD3: canonical BRD3 (NP_031397; 726 aa, SEQ ID NO: 45), BET bromodomain protein | none did |  | binding to H4K5/8/12/16Ac peptide [2]: weaker than BRD3R |
| NANOG: established reprogramming factor [reference compound] |  | 5.1 × |  |
| LIN28: established reprogramming factor (protein, UniProt Q9H9Z2 2-209, looked up) Protein lin-28 homolog A: GSVSNQQFAGGCAKAAEEAPEEAPEDAARAADEPQLLHGAGICKWFNVRMGFGFLSMTARAGVALDPPVDVFVHQSKLHMEGFRSLKEGEAVEFTFKKSAKGLESIRVTGPGGVFCIGSERRPKGKSMQKRRSKGDRCYNCGGLDHHAKECKLPPQPKKCHFCQSISHMVASCPLKAQQGPSAQGKPTYFREEEEEIHSPTLLPEAQN |  | 2.4 × |  |
| BRD3R shRNA: shRNA that specifically targets BRD3R (SEQ ID NO: 42 and 43) (nucleic acid) chain 1: CTAGGAACCTCTGTAATTGTTTCCTGGCTCGAGCCAGGAAACAATTACAGAGGTTCTTTTTT chain 2: AAAAAAGAACCTCTGTAATTGTTTCCTGGCTCGAGCCAGGAAACAATTACAGAGGTTC |  |  | knockdown of BRD3R mRNA (BRD3R mRNA): significant knockdown; impairment of reprogramming (BJ cells [1]; BRD3R knockdown by shRNA, TRA-1-60 staining): 58% |

Source: patent publication US20180163180A1, “METHOD OF ENHANCING SOMATIC CELL REPROGRAMMING WITH THE ACETYLLYSINE READER BRD3R” (THE UAB RESEARCH FOUNDATION, INC ., priority 2015, published 2018)
